In US20240156864A1 (UNIVERSITY OF NORTH CAROLINA AT CHAPEL HILL, published 2024):

B1: TRAF1 (other)
chain: MASSSGSSPRPAPDENEFPFGCPPTVCQDPKEPRALCCAGCLSENPRNGEDQICPKCRGEDLQSISPGSRLRTQEKAHPEVAEAGIGCPFAGVGCSFKGSPQSVQEHEVTSQTSHLNLLLGFMKQWKARLGCGLESGPMALEQNLSDLQLQAAVEVAGDLEVDCYRAPCSESQEELALQHFMKEKLLAELEGKLRVFENIVAVLNKEVEASHLALATSIHQSQLDRERILSLEQRVVELQQTLAQKDQALGKLEQSLRLMEEASFDGTFLWKITNVTRRCHESACGRTVSLFSPAFYTAKYGYKLCLRLYLNGDGTGKRTHLSLFIVIMRGEYDALLPWPFRNKVTFMLLDQNNREHAIDAFRPDLSSASFQRPQSETNVASGCPLFFPLSKLQSPKHAYVKDDTMFLKCIVETST
notes: Endogenous protein from T cell lysate
B2: TRAF2 (other)
chain: AAASVTPPGSLELLQPGFSKTLLGTKLEAKYLCSACRNVLRRPFQAQCGHRYCSFCLASILSSGPQNCAACVHEGIYEEGISILESSSAFPDNAARREVESLPAVCPSDGCTWKGTLKEYESCHEGRCPLMLTECPACKGLVRLGEKERHLEHECPERSLSCRHCRAPCCGADVKAHHEVCPKFPLTCDGCGKKKIPREKFQDHVKTCGKCRVPCRFHAIGCLETVEGEKQQEHEVQWLREHLAMLLSSVLEAKPLLGDQSHAGSELLQRCESLEKKTATFENIVCVLNREVERVAMTAEACSRQHRLDQDKIEALSSKVQQLERSIGLKDLAMADLEQKVLEMEASTYDGVFIWKISDFARKRQEAVAGRIPAIFSPAFYTSRYGYKMCLRIYLNGDGTGRGTHLSLFFVVMKGPNDALLRWPFNQKVTLMLLDQNNREHVIDAFRPDVTSSSFQRPVNDMNIASGCPLFCPVSKMEAKNSYVRDDAIFIKAIVDLTGL
notes: as for B1

Columns and labels:
[1] = biological target: B1; assay: co-IP with anti-CAR19 Ab, LC-MS/MS; 'Values not identified are denoted by -'
Experimental: (§1) For Immunoprecipitation (IP), assay, proteins from T cells were extracted in RIPA lysis buffer (Thermo Scientific) supplemented with 1×protease/phosphatase Inhibitors (Thermo Scientific). Equal amount of total proteins was used for IP. Rabbit/mouse IgG (Thermo Scientific) with protein G magnetic beads (Bio-Rad) was used to pre-clear the lysate and anti-CAR19, anti-HA or anti-FLAG Abs were incubated with lysate for 16 hours, and protein G beads were then used for the pull-down. IP products were dissolved in 2× SDS Laemmli buffer for Western blot analysis. […] 2× SDS Laemmli buffer without β-mercaptoethanol was used to dissolve the IP product, and β-mercaptoethanol was supplemented before western blot.
(§2) For mass spectrometry (MS) assays, immunoprecipitated samples (3 biological replicates) were subjected to SDS-PAGE and stained with Coomassie blue dye. Lanes for each sample were excised and the proteins were reduced, alkylated, and in-gel digested with trypsin overnight at 37° C. Peptides were extracted, desalted with C18 spin columns (Pierce) and dried via vacuum centrifugation. Peptide samples were stored at −80° C. until further analysis. The peptide samples were analyzed by liquid chromatography coupled to tandem mass spectrometry (LC-MS/MS) in 3 separated experiments using a Thermo Easy nLC 1000 coupled to a QExactive HF or a Waters nanoAcquity coupled to a Thermo LTQ-Orbitrap Velos. […]

[2] = biological target: B2; assay: as above
Experimental: as §1, §2

[3] = biological target: T1, CD4 co-receptor (human, UniProt P01730 26-458); assay: co-IP with anti-CAR19 Ab, LC-MS/MS
T1 construct: Endogenous protein from T cell lysate

[4] = biological target: T2, CAR19.BBζ (human, UniProt P01732 138-206; Q07011 214-255; P20963 52-164); assay: co-IP with anti-CAR19 Ab from CAR-T cell lysate, LC-MS/MS
T2 construct: Expressed in human T cells (or Jurkat cells) and pulled down from lysate; also called CAR.BBζ; CAR19.BBC
T2 sequence (P20963 other isoform, or with tags, fused parts or gaps): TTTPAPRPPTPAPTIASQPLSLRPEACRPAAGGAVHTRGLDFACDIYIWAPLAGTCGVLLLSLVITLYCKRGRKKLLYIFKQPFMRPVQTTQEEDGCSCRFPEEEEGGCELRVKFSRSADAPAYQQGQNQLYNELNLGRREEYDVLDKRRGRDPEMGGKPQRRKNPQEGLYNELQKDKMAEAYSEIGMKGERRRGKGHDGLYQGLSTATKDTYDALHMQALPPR
Experimental: as §1
For mass spectrometry (MS) assays, immunoprecipitated samples (3 biological replicates) were subjected to SDS-PAGE and stained with Coomassie blue dye. Lanes for each sample were excised and the proteins were reduced, alkylated, and in-gel digested with trypsin overnight at 37° C. Peptides were extracted, desalted with C18 spin columns (Pierce) and dried via vacuum centrifugation. Peptide samples were stored at −80° C. until further analysis. The peptide samples were analyzed by liquid chromatography coupled to tandem mass spectrometry (LC-MS/MS) in 3 separated experiments using a Thermo Easy nLC 1000 coupled to a QExactive HF or a Waters nanoAcquity coupled to a Thermo LTQ-Orbitrap Velos. Samples were injected onto a PepMap C18 column (75 μm id×25 cm, 2 μm particle size) (Thermo Scientific) and separated over a 90 or 120 min gradient where mobile phase A was 0.1% formic acid in water and mobile phase B consisted of 0.1% formic acid in ACN. The LTQ-Orbitrap Velos was operated in data-dependent mode where the 10 most abundant precursors were selected for CID fragmentation (35% CE). The QExactive HF was operated in data-dependent mode where the 15 most intense precursors were selected for subsequent HCD fragmentation (27 NCE).

Row | binding result [1] | binding result [2] | binding result [3] | Area [4] | Coverage [4] | Peptides (number identified) [4] | Binder
1 | no binding | no binding | no binding |  |  |  | CAR19.28ζ (receptor, Expressed in human T cells and pulled down from lysate with the anti-CAR19 Ab; also called CAR.28ζ; CAR19.CD28ζ) not shown
2 |  |  |  | 5.1e+06 | 2% | 2 | PIK3CD (enzyme, Endogenous protein from T cell lysate) MPPGVDCPMEFWTKEENQSVVVDFLLPTGVYLNFPVSRNANLSTIKQLLWHRAQYEPLFHMLSGPEAYVFTCINQTAEQQELEDEQRRLCDVQPFLPVLRLVAREGDRVKKLINSQISLLIGKGLHEFDSLCDPEVNDFRAKMCQFCEEAAARRQQLGWEAWLQYSFPLQLEPSAQTWGPGTLRLPNRALLVNVKFEGSEESFTFQVSTKDVPLALMACALRKKATVFRQPLVEQPEDYTLQVNGRHEYLYGSYPLCQFQYICSCLHSGLTPHLTMVHSSSILAMRDEQSNPAPQVQKPRAKPPPIPAKKPSSVSLWSLEQPFRIELIQGSKVNADERMKLVVQAGLFHGNEMLCKTVSSSEVSVCSEPVWKQRLEFDINICDLPRMARLCFALYAVIEKAKKARSTKKKSKKADCPIAWANLMLFDYKDQLKTGERCLYMWPSVPDEKGELLNPTGTVRSNPNTDSAAALLICLPEVAPHPVYYPALEKILELGRHSECVHVTEEEQLQLREILERRGSGELYEHEKDLVWKLRHEVQEHFPEALARLLLVTKWNKHEDVAQMLYLLCSWPELPVLSALELLDFSFPDCHVGSFAIKSLRKLTDDELFQYLLQLVQVLKYESYLDCELTKFLLDRALANRKIGHFLFWHLRSEMHVPSVALRFGLILEAYCRGSTHHMKVLMKQGEALSKLKALNDFVKLSSQKTPKPQTKELMHLCMRQEAYLEALSHLQSPLDPSTLLAEVCVEQCTFMDSKMKPLWIMYSNEEAGSGGSVGIIFKNGDDLRQDMLTLQMIQLMDVLWKQEGLDLRMTPYGCLPTGDRTGLIEVVLRSDTIANIQLNKSNMAATAAFNKDALLNWLKSKNPGEALDRAIEEFTLSCAGYCVATYVLGIGDRHSDNIMIRESGQLFHIDFGHFLGNFKTKFGINRERVPFILTYDFVHVIQQGKTNNSEKFERFRGYCERAYTILRRHGLLFLHLFALMRAAGLPELSCSKDIQYLKDSLALGKTEEEALKHFRVKFNEALRESWKTKVNWLAHNVSKDNRQ
3 |  |  |  | 2.31e+08 | 15% | 4 | B1
4 |  |  |  | 3.78e+07 | 4% | 2 | THEMIS (other, Endogenous protein from T cell lysate (Co-IP-MS); also called endogenous THEMIS; TEHMIS [sic]) MALSLEEFVHSLDLRTLPRVLEIQAGIYLEGSIYEMFGNECCFSTGEVIKITGLKVKKIIAEICEQIEGCESLQPFELPMNFPGLFKIVADKTPYLTMEEITRTIHIGPSRLGHPCFYHQKDIKLENLIIKQGEQIMLNSVEEIDGEIMVSCAVARNHQTHSFNLPLSQEGEFYECEDERIYTLKEIVEWKIPKNRTRTVNLTDFSNKWDSTNPFPKDFYGTLILKPVYEIQGVMKFRKDIIRILPSLDVEVKDITDSYDANWFLQLLSTEDLFEMTSKEFPIVTEVIEAPEGNHLPQSILQPGKTIVIHKKYQASRILASEIRSNFPKRHFLIPTSYKGKFKRRPREFPTAYDLEIAKSEKEPLHVVATKAFHSPHDKLSSVSVGDQFLVHQSETTEVLCEGIKKVVNVLACEKILKKSYEAALLPLYMEGGFVEVIHDKKQYPISELCKQFRLPFNVKVSVRDLSIEEDVLAATPGLQLEEDITDSYLLISDFANPTECWEIPVGRLNMTVQLVSNFSRDAEPFLVRTLVEEITEEQYYMMRRYESSASHPPPRPPKHPSVEETKLTLLTLAEERTVDLPKSPKRHHVDITKKLHPNQAGLDSKVLIGSQNDLVDEEKERSNRGATAIAETFKNEKHQK
5 |  |  |  | 7.34e+08 | 32% | 6 | CD8α (receptor, Endogenous protein from T cell lysate; The CARs themselves carry a CD8α stalk; the text says that unique peptides outside the stalk were detected; also called CD8A; CD8 co-receptor) not shown
6 |  |  |  | 5.52e+07 | 14% | 6 | B2
